Results reported in patent US8673848 (Novartis, dated 2014).
Bridges are numbered along the chain shown (N, C = ends). [ ]: non-standard residue; d: D form. The star is where a group is joined. 3Pal = N[C@@H](Cc1cccnc1)C(=O)O; Myristoyl = CCCCCCCCCCCCCC(=O)*; pGlu = O=C1CC[C@@H](C(=O)O)N1; d(hCys) = N[C@H](CCS)C(=O)O; hCys = N[C@@H](CCS)C(=O)O; Nle = CCCC[C@H](N)C(=O)O; AEEA = NCCOCCOCC(=O)O

T1: human APJ receptor (hAPJ) (human, UniProt P35414 1-380)
T1 sequence (looked up): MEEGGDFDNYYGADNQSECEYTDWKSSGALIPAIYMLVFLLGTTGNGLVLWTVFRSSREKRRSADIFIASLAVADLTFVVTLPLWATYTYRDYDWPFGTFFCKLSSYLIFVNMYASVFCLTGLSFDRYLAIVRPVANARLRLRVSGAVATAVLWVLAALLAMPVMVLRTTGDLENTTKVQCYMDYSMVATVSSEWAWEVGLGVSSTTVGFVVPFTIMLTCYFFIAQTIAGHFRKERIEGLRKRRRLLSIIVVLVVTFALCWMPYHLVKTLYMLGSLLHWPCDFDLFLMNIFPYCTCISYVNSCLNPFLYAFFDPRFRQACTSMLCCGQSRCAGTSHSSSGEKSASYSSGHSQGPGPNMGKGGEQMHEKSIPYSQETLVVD

B1: Example 43: pE-R-P-R-L-C-E-K-G-P-Nle-C-F-OH (peptide)
peptide: [pGlu]RPRLCEKGP[Nle]CF-OH
modifications: disulfide 6-12
SMILES: CCCC[C@@H]1NC(=O)[C@@H]2CCCN2C(=O)CNC(=O)[C@H](CCCCN)NC(=O)[C@H](CCC(=O)O)NC(=O)[C@@H](NC(=O)[C@H](CC(C)C)NC(=O)[C@H](CCCNC(=N)N)NC(=O)[C@@H]2CCCN2C(=O)[C@H](CCCNC(=N)N)NC(=O)[C@@H]2CCC(=O)N2)CSSC[C@@H](C(=O)N[C@@H](Cc2ccccc2)C(=O)O)NC1=O
B2: Example 5: pE-R-P-R-L-K-F-K-G-P-Nle-F (peptide)
peptide: [pGlu]RPRLKFKGP[Nle]F
modifications: lactam 6-C
B3: Example 50: pE-R-P-R-L-C-H-K-G-P-Nle-C-OH (peptide)
peptide: [pGlu]RPRLCHKGP[Nle]C-OH
modifications: disulfide 6-12
SMILES: CCCC[C@@H]1NC(=O)[C@@H]2CCCN2C(=O)CNC(=O)[C@H](CCCCN)NC(=O)[C@H](Cc2c[nH]cn2)NC(=O)[C@@H](NC(=O)[C@H](CC(C)C)NC(=O)[C@H](CCCNC(=N)N)NC(=O)[C@@H]2CCCN2C(=O)[C@H](CCCNC(=N)N)NC(=O)[C@@H]2CCC(=O)N2)CSSC[C@@H](C(=O)O)NC1=O
B4: Example 55: pE-R-P-R-L-(D-hC)-H-K-G-P-Nle-(D-hC)-F-OH (peptide)
peptide: [pGlu]RPRL[d(hCys)]HKGP[Nle][d(hCys)]F-OH
modifications: disulfide 6-12
SMILES: CCCC[C@@H]1NC(=O)[C@@H]2CCCN2C(=O)CNC(=O)[C@H](CCCCN)NC(=O)[C@H](Cc2c[nH]cn2)NC(=O)[C@H](NC(=O)[C@H](CC(C)C)NC(=O)[C@H](CCCNC(=N)N)NC(=O)[C@@H]2CCCN2C(=O)[C@H](CCCNC(=N)N)NC(=O)[C@@H]2CCC(=O)N2)CCSSCC[C@H](C(=O)N[C@@H](Cc2ccccc2)C(=O)O)NC1=O
B5: Example 53: pE-R-P-R-L-c-H-K-G-P-Nle-C-F-OH (peptide)
peptide: [pGlu]RPRL[dC]HKGP[Nle]CF-OH
modifications: disulfide 6-12
SMILES: CCCC[C@@H]1NC(=O)[C@@H]2CCCN2C(=O)CNC(=O)[C@H](CCCCN)NC(=O)[C@H](Cc2c[nH]cn2)NC(=O)[C@H](NC(=O)[C@H](CC(C)C)NC(=O)[C@H](CCCNC(=N)N)NC(=O)[C@@H]2CCCN2C(=O)[C@H](CCCNC(=N)N)NC(=O)[C@@H]2CCC(=O)N2)CSSC[C@@H](C(=O)N[C@@H](Cc2ccccc2)C(=O)O)NC1=O
B6: Example 45: pE-R-P-R-L-C-H-K-R-P-Nle-C-F-OH (peptide)
peptide: [pGlu]RPRLCHKRP[Nle]CF-OH
modifications: disulfide 6-12
SMILES: CCCC[C@@H]1NC(=O)[C@@H]2CCCN2C(=O)[C@H](CCCNC(=N)N)NC(=O)[C@H](CCCCN)NC(=O)[C@H](Cc2c[nH]cn2)NC(=O)[C@@H](NC(=O)[C@H](CC(C)C)NC(=O)[C@H](CCCNC(=N)N)NC(=O)[C@@H]2CCCN2C(=O)[C@H](CCCNC(=N)N)NC(=O)[C@@H]2CCC(=O)N2)CSSC[C@@H](C(=O)N[C@@H](Cc2ccccc2)C(=O)O)NC1=O
B7: Example 49: pE-R-P-R-L-C-H-K-G-P-Nle-C-E-OH (peptide)
peptide: [pGlu]RPRLCHKGP[Nle]CE-OH
modifications: disulfide 6-12
SMILES: CCCC[C@@H]1NC(=O)[C@@H]2CCCN2C(=O)CNC(=O)[C@H](CCCCN)NC(=O)[C@H](Cc2c[nH]cn2)NC(=O)[C@@H](NC(=O)[C@H](CC(C)C)NC(=O)[C@H](CCCNC(=N)N)NC(=O)[C@@H]2CCCN2C(=O)[C@H](CCCNC(=N)N)NC(=O)[C@@H]2CCC(=O)N2)CSSC[C@@H](C(=O)N[C@@H](CCC(=O)O)C(=O)O)NC1=O
B8: Example 47: pE-R-P-R-L-C-H-K-G-P-(3-PyA)-C-F-OH (peptide)
peptide: [pGlu]RPRLCHKGP[3Pal]CF-OH
modifications: disulfide 6-12
SMILES: CC(C)C[C@H](NC(=O)[C@H](CCCNC(=N)N)NC(=O)[C@@H]1CCCN1C(=O)[C@H](CCCNC(=N)N)NC(=O)[C@@H]1CCC(=O)N1)C(=O)N[C@H]1CSSC[C@@H](C(=O)N[C@@H](Cc2ccccc2)C(=O)O)NC(=O)[C@H](Cc2cccnc2)NC(=O)[C@@H]2CCCN2C(=O)CNC(=O)[C@H](CCCCN)NC(=O)[C@H](Cc2c[nH]cn2)NC1=O
B9: Example 54: pE-R-P-R-L-C-H-K-G-P-Nle-(D-hC)-F-OH (peptide)
peptide: [pGlu]RPRLCHKGP[Nle][d(hCys)]F-OH
modifications: disulfide 6-12
SMILES: CCCC[C@@H]1NC(=O)[C@@H]2CCCN2C(=O)CNC(=O)[C@H](CCCCN)NC(=O)[C@H](Cc2c[nH]cn2)NC(=O)[C@@H](NC(=O)[C@H](CC(C)C)NC(=O)[C@H](CCCNC(=N)N)NC(=O)[C@@H]2CCCN2C(=O)[C@H](CCCNC(=N)N)NC(=O)[C@@H]2CCC(=O)N2)CSSCC[C@H](C(=O)N[C@@H](Cc2ccccc2)C(=O)O)NC1=O
B10: Example 56: pE-R-P-R-L-C-H-K-G-P-Nle-c-F-OH (peptide)
peptide: [pGlu]RPRLCHKGP[Nle][dC]F-OH
modifications: disulfide 6-12
SMILES: CCCC[C@@H]1NC(=O)[C@@H]2CCCN2C(=O)CNC(=O)[C@H](CCCCN)NC(=O)[C@H](Cc2c[nH]cn2)NC(=O)[C@@H](NC(=O)[C@H](CC(C)C)NC(=O)[C@H](CCCNC(=N)N)NC(=O)[C@@H]2CCCN2C(=O)[C@H](CCCNC(=N)N)NC(=O)[C@@H]2CCC(=O)N2)CSSC[C@H](C(=O)N[C@@H](Cc2ccccc2)C(=O)O)NC1=O
B11: Example 52: pE-R-P-R-L-hC-H-K-G-P-Nle-hC-F-OH (peptide)
peptide: [pGlu]RPRL[hCys]HKGP[Nle][hCys]F-OH
modifications: disulfide 6-12
SMILES: CCCC[C@@H]1NC(=O)[C@@H]2CCCN2C(=O)CNC(=O)[C@H](CCCCN)NC(=O)[C@H](Cc2c[nH]cn2)NC(=O)[C@@H](NC(=O)[C@H](CC(C)C)NC(=O)[C@H](CCCNC(=N)N)NC(=O)[C@@H]2CCCN2C(=O)[C@H](CCCNC(=N)N)NC(=O)[C@@H]2CCC(=O)N2)CCSSCC[C@@H](C(=O)N[C@@H](Cc2ccccc2)C(=O)O)NC1=O
B12: Example 51: pE-R-P-R-L-C-H-K-G-P-Nle-hC-F-OH (peptide)
peptide: [pGlu]RPRLCHKGP[Nle][hCys]F-OH
modifications: disulfide 6-12
SMILES: CCCC[C@@H]1NC(=O)[C@@H]2CCCN2C(=O)CNC(=O)[C@H](CCCCN)NC(=O)[C@H](Cc2c[nH]cn2)NC(=O)[C@@H](NC(=O)[C@H](CC(C)C)NC(=O)[C@H](CCCNC(=N)N)NC(=O)[C@@H]2CCCN2C(=O)[C@H](CCCNC(=N)N)NC(=O)[C@@H]2CCC(=O)N2)CSSCC[C@@H](C(=O)N[C@@H](Cc2ccccc2)C(=O)O)NC1=O
B13: Example 58: Myristoyl-O2Oc-O2Oc-Q-R-P-R-L-C-H-K-G-P-Nle-C-f-OH (peptide)
peptide: Myristoyl-[AEEA][AEEA]QRPRLCHKGP[Nle]C[dF]-OH
modifications: disulfide 8-14
SMILES: CCCCCCCCCCCCCC(=O)NCCOCCOCC(=O)NCCOCCOCC(=O)N[C@@H](CCC(N)=O)C(=O)N[C@@H](CCCNC(=N)N)C(=O)N1CCC[C@H]1C(=O)N[C@@H](CCCNC(=N)N)C(=O)N[C@@H](CC(C)C)C(=O)N[C@H]1CSSC[C@@H](C(=O)N[C@H](Cc2ccccc2)C(=O)O)NC(=O)[C@H](CCCC)NC(=O)[C@@H]2CCCN2C(=O)CNC(=O)[C@H](CCCCN)NC(=O)[C@H](Cc2c[nH]cn2)NC1=O
B14: Example 44: pE-R-P-R-L-C-H-K-L-P-Nle-C-F-OH (peptide)
peptide: [pGlu]RPRLCHKLP[Nle]CF-OH
modifications: disulfide 6-12
SMILES: CCCC[C@@H]1NC(=O)[C@@H]2CCCN2C(=O)[C@H](CC(C)C)NC(=O)[C@H](CCCCN)NC(=O)[C@H](Cc2c[nH]cn2)NC(=O)[C@@H](NC(=O)[C@H](CC(C)C)NC(=O)[C@H](CCCNC(=N)N)NC(=O)[C@@H]2CCCN2C(=O)[C@H](CCCNC(=N)N)NC(=O)[C@@H]2CCC(=O)N2)CSSC[C@@H](C(=O)N[C@@H](Cc2ccccc2)C(=O)O)NC1=O
B15: Example 48: pE-R-P-R-L-C-H-K-G-P-Nle-C-H-OH (peptide)
peptide: [pGlu]RPRLCHKGP[Nle]CH-OH
modifications: disulfide 6-12
SMILES: CCCC[C@@H]1NC(=O)[C@@H]2CCCN2C(=O)CNC(=O)[C@H](CCCCN)NC(=O)[C@H](Cc2c[nH]cn2)NC(=O)[C@@H](NC(=O)[C@H](CC(C)C)NC(=O)[C@H](CCCNC(=N)N)NC(=O)[C@@H]2CCCN2C(=O)[C@H](CCCNC(=N)N)NC(=O)[C@@H]2CCC(=O)N2)CSSC[C@@H](C(=O)N[C@@H](Cc2c[nH]cn2)C(=O)O)NC1=O
B16: Example 46: pE-R-P-R-L-C-H-K-G-(Pipecolic acid)-Nle-C-F-OH (peptide)
peptide: [pGlu]RPRLCHKG[Pipecolic acid][Nle]CF-OH
modifications: disulfide 6-12
B17: Example 57: pE-R-P-R-L-c-H-K-G-P-Nle-c-F-OH (peptide)
peptide: [pGlu]RPRL[dC]HKGP[Nle][dC]F-OH
modifications: disulfide 6-12
SMILES: CCCC[C@@H]1NC(=O)[C@@H]2CCCN2C(=O)CNC(=O)[C@H](CCCCN)NC(=O)[C@H](Cc2c[nH]cn2)NC(=O)[C@H](NC(=O)[C@H](CC(C)C)NC(=O)[C@H](CCCNC(=N)N)NC(=O)[C@@H]2CCCN2C(=O)[C@H](CCCNC(=N)N)NC(=O)[C@@H]2CCC(=O)N2)CSSC[C@H](C(=O)N[C@@H](Cc2ccccc2)C(=O)O)NC1=O
B18: Example 59: Myristoyl-O2Oc-O2Oc-O2Oc-Q-R-P-R-L-C-H-K-G-P-Nle-C-f-OH (peptide)
peptide: Myristoyl-[AEEA][AEEA][AEEA]QRPRLCHKGP[Nle]C[dF]-OH
modifications: disulfide 9-15
SMILES: CCCCCCCCCCCCCC(=O)NCCOCCOCC(=O)NCCOCCOCC(=O)NCCOCCOCC(=O)N[C@@H](CCC(N)=O)C(=O)N[C@@H](CCCNC(=N)N)C(=O)N1CCC[C@H]1C(=O)N[C@@H](CCCNC(=N)N)C(=O)N[C@@H](CC(C)C)C(=O)N[C@H]1CSSC[C@@H](C(=O)N[C@H](Cc2ccccc2)C(=O)O)NC(=O)[C@H](CCCC)NC(=O)[C@@H]2CCCN2C(=O)CNC(=O)[C@H](CCCCN)NC(=O)[C@H](Cc2c[nH]cn2)NC1=O

target: T1, human APJ receptor (hAPJ); test: cell-based or functional assay

Question: Which “hAPJ Ca2+ Flux EC50” value does the source give for B1 here?
Answer: 4.14 nM

Question: How did the “hAPJ Ca2+ Flux EC50” value turn out when B2 was run?
Answer: 21.2 nM

Question: B3 was tested. Which “hAPJ Ca2+ Flux EC50” value did it give?
Answer: 1.92 nM

Question: B4 was tested. Which “hAPJ Ca2+ Flux EC50” value did it give?
Answer: 8.16 nM

Question: Which “hAPJ Ca2+ Flux EC50” value does the source give for B5 here?
Answer: 1.07 nM

Question: How did the “hAPJ Ca2+ Flux EC50” value turn out when B6 was run?
Answer: 6.55 nM

Question: With B7 as the binder, how does the “hAPJ Ca2+ Flux EC50” value read?
Answer: 34.2 nM

Question: Which “hAPJ Ca2+ Flux EC50” value does the source give for B8 here?
Answer: 2.41 nM

Question: For B9, which “hAPJ Ca2+ Flux EC50” value is on record?
Answer: 6.7 nM

Question: For B10, which “hAPJ Ca2+ Flux EC50” value is on record?
Answer: 1.12 nM

Question: B11 was tested. Which “hAPJ Ca2+ Flux EC50” value did it give?
Answer: 53.9 nM

Question: With B12 as the binder, how does the “hAPJ Ca2+ Flux EC50” value read?
Answer: 1.09 nM

Question: B13 was tested. Which “hAPJ Ca2+ Flux EC50” value did it give?
Answer: 13.1 nM

Question: How did the “hAPJ Ca2+ Flux EC50” value turn out when B14 was run?
Answer: 5.94 nM

Question: For B15, which “hAPJ Ca2+ Flux EC50” value is on record?
Answer: 4.1 nM

Question: With B16 as the binder, how does the “hAPJ Ca2+ Flux EC50” value read?
Answer: 3.87 nM

Question: For B17, which “hAPJ Ca2+ Flux EC50” value is on record?
Answer: 2.01 nM

Question: Which “hAPJ Ca2+ Flux EC50” value does the source give for B18 here?
Answer: 10 nM
